Data published in US20240228660A1 (IP2IPO INNOVATIONS, published 2024).
Positions count from the first letter of the chain named.

B1: 3-H9_H2_VL-par (antibody, human IgG1, kappa, V domains shown)
VH: QQLVESGGGVVQPGRSLRLSCAASGFSLSNYDMSWVRQAPGKGLEWIGSIHAIGITYYANWAEGRFTISRDKNTVYLQMNSLRAEDTATYFCARGLVDLNMWGQGTLVTVSS
VL: AIKMTQTPSSVSVAVGGTVTINCQSSQSVYSNNLLSWYQQKPGQPPKLLIYDASTLESGVPSRFKGSGSGTQFTLTISGVQCEDAATYYCQGSYYSSGWYNTFGGGTEVVVET
notes: also called 3-H9_H2 (hIgG1)
B2: 1-G5_H2_VL-par (antibody, human IgG1, kappa, V domains shown)
VH: B1 VH with N30S, S34T, I53T, Y57F, E63K, I68T, R70K, K72S
VL: DPVMTQTASSVSAAVGGTVTINCQASQSVYNNNYLSWYQQKPGQPPKLLIYDASTLASGVPSRFSGNGSGTQFTLTISGVQCDDAATYYCQGSYYSGGWDTAFGGGTKVVVKT
notes: also called 1-G5_H2 (hIgG1)
B3: 3-H9_H1_VL-par (antibody, human IgG1, kappa, V domains shown)
VH: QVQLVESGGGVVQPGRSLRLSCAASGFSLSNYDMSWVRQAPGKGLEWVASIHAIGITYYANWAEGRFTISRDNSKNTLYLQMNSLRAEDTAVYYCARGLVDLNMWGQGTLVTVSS
VL: B1 VL
notes: also called 3-H9_H1 (hIgG1)
B4: 3-H9_H0_VL-par (antibody, human IgG1, kappa, V domains shown)
VH: QVQLVESGGGVVQPGRSLRLSCAASGFTFSNYDMSWVRQAPGKGLEWVASIHAIGITYYANWAEGRFTISRDNSKNTLYLQMNSLRAEDTAVYYCARGLVDLNMWGQGTLVTVSS
VL: B1 VL
notes: also called 3-H9_H0 (hIgG1)
B5: 1-G5_VH-par_L1 (antibody, human IgG1, kappa)
heavy chain: not shown
light chain: DPQMTQSPSSLSASVGDRVTITCQASQSVYNNNYLSWYQQKPGKAPKLLIYDASTLASGVPSRFSGSGSGTDFTLTISSLQPEDFATYYCQGSYYSGGWDTAFGGGTKVEIKTVAAPSVFIFPPSDEQLKSGTASVVCLLNNFYPREAKVQWKVDNALQSGNSQESVTEQDSKDSTYSLSSTLTLSKADYEKHKVYACEVTHQGLSSPVTKSFNRGEC
notes: also called 1-G5_L1 (hIgG1K)
B6: 1-G5_VH-par_L0 (antibody, human IgG1, kappa)
heavy chain: not shown
light chain: B5 light chain with P2I
notes: also called 1-G5_L0 (hIgG1K)
B7: 1-G5_VH-par_VL-par (antibody, human IgG1, kappa)
heavy chain: not shown
light chain: DPVMTQTASSVSAAVGGTVTINCQASQSVYNNNYLSWYQQKPGQPPKLLIYDASTLASGVPSRFSGNGSGTQFTLTISGVQCDDAATYYCQGSYYSGGWDTAFGGGTKVVVKTVAAPSVFIFPPSDEQLKSGTASVVCLLNNFYPREAKVQWKVDNALQSGNSQESVTEQDSKDSTYSLSSTLTLSKADYEKHKVYACEVTHQGLSSPVTKSFNRGEC
notes: also called 1-G5_parental (hIgG1)
B8: 3-H9_VH-par_L0 (antibody, human IgG1, kappa, V domains shown)
VH: SQSLEESGGRLVTPGTPLTLTCSVSGFSLSNYDMSWVRQAPGKGLEWIGSIHAIGITYYANWAEGRFTISKTSTTVDLKMTSLTTEDTATYFCARGLVDLNMWGPGTLVTVSS
VL: DIQMTQSPSSLSASVGDRVTITCQSSQSVYSNNLLSWYQQKPGKAPKLLIYDASTLESGVPSRFSGSGSGTDFTLTISSLQPEDFATYYCQGSYYSSGWYNTFGGGTKVEIKT
notes: also called 3-H9_L0 (hIgG1K)
B9: 1-G5_H1_VL-par (antibody, human IgG1, kappa, V domains shown)
VH: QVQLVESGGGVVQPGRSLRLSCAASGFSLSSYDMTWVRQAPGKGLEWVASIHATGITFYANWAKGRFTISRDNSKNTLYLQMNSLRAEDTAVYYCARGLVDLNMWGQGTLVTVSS
VL: B2 VL
notes: also called 1-G5_H1 (hIgG1)
B10: 1-G5_H0_VL-par rep (antibody, human IgG1, kappa, V domains shown)
VH: B4 VH with N31S, S35T, I54T, Y58F, E64K
VL: B2 VL
notes: also called 1-G5_H0 (hIgG1)
B11: 4-H3_H1_L0 (antibody, human IgG1, kappa)
heavy: not shown
light: DIQMTQSPSSLSASVGDRVTITCLASEDIASGISWYQQKPGKAPKLLIYGASNLESGVPSRFSGSGSGTDFTLTISSLQPEDFATYYCLGGYSFSSNGLTFGGGTKVEIKTVAAPSVFIFPPSDEQLKSGTASVVCLLNNFYPREAKVQWKVDNALQSGNSQESVTEQDSKDSTYSLSSTLTLSKADYEKHKVYACEVTHQGLSSPVTKSFNRGEC
notes: humanised, human IgG1 kappa
B12: 4-H3_H0_L1 rep (antibody, human IgG1, kappa, V domains shown)
VH: QVQLVESGGGVVQPGRSLRLSCAASGFTFSSNAMNWVRQAPGKGLEWVAGIYGHDTSYYAAWAKGRFTISRDNSKNTLYLQMNSLRAEDTAVYYCARGFIYFDIWGQGTLVTVSS
VL: DYQMTQSPSSLSASVGDRVTITCLASEDIASGISWYQQKPGKAPKLLIYGASNLESGVPSRFSGSGSGTDYTLTISSLQPEDFATYYCLGGYSFSSNGLTFGGGTKVEIKT
notes: humanised, human IgG1 kappa
B13: 1-D5_H2_VL-par (antibody, human IgG1, kappa, V domains shown)
VH: QQQLVESGGGVVQPGRSLRLSCAASGFSLNNYIMGWVRQAPGKGLEYIGIISTGGSTYYASWAKGRFTISRDSNTMYLQMNSLRAEDTATYFCARGGSSAGAGFNIWGQGTLVTVSS
VL: DIVMTQTPSSVSAAVGDTVTIQCQASQSINSGLAWYQQKPGQPPKRLIYKASTLASGVPSRFRGSGSGTDFTLTISDLECADAATYYCQSYHYISANGATFGGGTEVVVET
notes: also called 1-D5_H2 (hIgG1)
B14: 1-D5_H1_VL-par (antibody, human IgG1, kappa, V domains shown)
VH: QVQLVESGGGVVQPGRSLRLSCAASGFSLNNYIMGWVRQAPGKGLEWVAIISTGGSTYYASWAKGRFTISRDNSKNTLYLQMNSLRAEDTAVYYCARGGSSAGAGFNIWGQGTLVTVSS
VL: B13 VL
notes: also called 1-D5_H1 (hIgG1)
B15: 1-D5_H0_VL-par (antibody, human IgG1, kappa, V domains shown)
VH: B14 VH with S28T, L29F, N30S
VL: B13 VL
notes: also called 1-D5_H0 (hIgG1)
B16: 3-H9_VH-par_VL-par (antibody, human IgG1, kappa)
heavy chain: not shown
light chain: AIKMTQTPSSVSVAVGGTVTINCQSSQSVYSNNLLSWYQQKPGQPPKLLIYDASTLESGVPSRFKGSGSGTQFTLTISGVQCEDAATYYCQGSYYSSGWYNTFGGGTEVVVETVAAPSVFIFPPSDEQLKSGTASVVCLLNNFYPREAKVQWKVDNALQSGNSQESVTEQDSKDSTYSLSSTLTLSKADYEKHKVYACEVTHQGLSSPVTKSFNRGEC
notes: also called 3-H9_parental (hIgG1)
B17: 4-H3_H6_L0 (antibody, human IgG1, kappa)
heavy: not shown
light: B11 light
notes: humanised, human IgG1 kappa
B18: 4-H3_H5_L1 (antibody, human IgG1, kappa)
heavy: not shown
light: B11 light with I2Y, F71Y
notes: humanised, human IgG1 kappa
B19: 4-H3_H6_L1 (antibody, human IgG1, kappa)
heavy: not shown
light: B11 light with I2Y, F71Y
notes: humanised, human IgG1 kappa
B20: 4-H3_H7_L0 rep (antibody, human IgG1, kappa, V domains shown)
VH: B12 VH with F27I, T28D, F29L, S30T, V48I, A49G, L78V, V92T, Y94F
VL: B12 VL with Y2I, Y71F
notes: humanised, human IgG1 kappa
B21: 4-H3_H7_L1 (antibody, human IgG1, kappa, V domains shown)
VH: B12 VH with F27I, T28D, F29L, S30T, V48I, A49G, L78V, V92T, Y94F
VL: B12 VL
notes: humanised, human IgG1 kappa
B22: 4-H3_H5_L0 (antibody, human IgG1, kappa)
heavy: not shown
light: B11 light
notes: humanised, human IgG1 kappa
B23: 4-H3_H0_L0 (antibody, human IgG1, kappa, V domains shown)
VH: B12 VH
VL: B12 VL with Y2I, Y71F
notes: humanised, human IgG1 kappa
B24: 1-G5_H1_L0 (antibody, human IgG1, kappa)
heavy: not shown
light: B5 light chain with P2I
notes: humanised, human IgG1 kappa

What follows are binders tested against T1, human full-length VWF (human, UniProt P04275 764-2813) (assay: SPR, Biacore T200, antibody captured on Protein A, full-length VWF as analyte, single-cycle kinetics).
Experimental: (§1) Antibodies were captured on Protein A sensor chip. The system was purged using running buffer (10 mM HEPES pH 7.4, 300 mM NaCl, 3 mM EDTA, 0.05% P20) and a series S Protein A chip was docked in the Biacore T200. The surface was conditioned with 10 mM glycine-HCl pH 1.5 regeneration solution (3 injections). Each antibody was diluted to ˜0.8 μg/ml in running buffer to capture ˜350 RU on flow cells 2, 3 and 4 (flow cell 1 used as in-line reference cell). Single-cycle kinetic analysis of human full-length VWF binding to antibodies was performed using the following parameters:
Work on B1 yielded a Kd of 12.4 pM, a koff of 1.14e-06 s⁻¹ and a kon of 92000 M⁻¹ s⁻¹. In the case of B2, the Kd is reported as 14.4 pM, the koff is reported as 3.78e-07 s⁻¹ and the kon is reported as 26200 M⁻¹ s⁻¹. B3 showed a Kd of 3.13 pM, a koff of 7.18e-08 s⁻¹ and a kon of 22900 M⁻¹ s⁻¹. With B4 the Kd was 4.09 pM, the koff was 3.59e-07 s⁻¹ and the kon was 87700 M⁻¹ s⁻¹. B5 was tested, and the Kd was 12 pM, the koff was 1.28e-06 s⁻¹ and the kon was 107000 M⁻¹ s⁻¹. Work on B6 yielded a Kd of 3.58 pM, a koff of 3.8e-07 s⁻¹ and a kon of 106000 M⁻¹ s⁻¹. In the case of B7, the Kd is reported as 0.475 pM. Work on B8 yielded a Kd of 111 pM, a koff of 2.12e-05 s⁻¹ and a kon of 192000 M⁻¹ s⁻¹. Binder B9 has a Kd of 6.77 pM, a koff of 1.66e-07 s⁻¹ and a kon of 24600 M⁻¹ s⁻¹. B10 was tested, and the Kd was 8.52 pM, the koff was 7.2e-07 s⁻¹ and the kon was 84500 M⁻¹ s⁻¹.

Target: T1, human full-length VWF
Assay: as above
Remark: another data set of the same source
Experimental: as §1
B11 showed a Kd of 18.7 pM, a koff of 2.49e-06 s⁻¹ and a kon of 134000 M⁻¹ s⁻¹. In the case of B12, the Kd is reported as 4.12 pM, the koff is reported as 1.52e-07 s⁻¹ and the kon is reported as 36900 M⁻¹ s⁻¹. In the case of B13, the Kd is reported as 31.2 pM, the koff is reported as 4.2e-06 s⁻¹ and the kon is reported as 135000 M⁻¹ s⁻¹. B14 showed a Kd of 0.304 pM, a koff of 2.37e-08 s⁻¹ and a kon of 78000 M⁻¹ s⁻¹. Binder B15 has a Kd of 0.031 pM, a koff of 2.38e-09 s⁻¹ and a kon of 77000 M⁻¹ s⁻¹. In the case of B16, the Kd is reported as 43.4 pM.

Each binder was assayed against T1, human full-length VWF (assay: SPR Biacore T200, antibody captured on Protein A chip, full-length VWF as analyte, single-cycle kinetics).
Experimental: as §1
B17 showed a Kd of under 1000 pM. With B18 the Kd was under 1000 pM. In the case of B11, the Kd is reported as under 1000 pM. With B19 the Kd was under 1000 pM. Work on B20 yielded a Kd of under 1000 pM. Work on B12 yielded a Kd of under 1000 pM. B21 was tested, and the Kd was under 1000 pM. B22 was tested, and the Kd was under 1000 pM. With B23 the Kd was under 1000 pM. B24 gave a Kd of under 1000 pM.

Target: T1, human full-length VWF
Assay: SPR, Biacore T200, antibody captured on Protein A, full-length VWF as analyte, single-cycle kinetics
Remark: another data set of the same source
Experimental: as §1
With B17 the Kd was 0.649 pM, the koff was 2.67e-08 s⁻¹ and the kon was 41200 M⁻¹ s⁻¹. Work on B18 yielded a Kd of 0.575 pM, a koff of 5.95e-08 s⁻¹ and a kon of 103000 M⁻¹ s⁻¹. Work on B19 yielded a Kd of 1.73 pM, a koff of 1.14e-07 s⁻¹ and a kon of 65700 M⁻¹ s⁻¹. Binder B20 has a Kd of 1.61 pM, a koff of 1.73e-07 s⁻¹ and a kon of 108000 M⁻¹ s⁻¹. In the case of B21, the Kd is reported as 5.84 pM, the koff is reported as 3.82e-07 s⁻¹ and the kon is reported as 65400 M⁻¹ s⁻¹. With B22 the Kd was 0.366 pM, the koff was 4.93e-08 s⁻¹ and the kon was 135000 M⁻¹ s⁻¹.
